The results in this text go back to article PMC9741652 (2022).

Where two headings read alike, the source gives them in different places. Where only a bound is given, the exact number is not on record here.

Assay in all cases: ITC
In general terms: In ITC the heat of successive injections is recorded.

For assay [1], the target named is T1, ZER1 (residues 469–766) (human, UniProt Q7Z7L7 469-766).
T1 chain: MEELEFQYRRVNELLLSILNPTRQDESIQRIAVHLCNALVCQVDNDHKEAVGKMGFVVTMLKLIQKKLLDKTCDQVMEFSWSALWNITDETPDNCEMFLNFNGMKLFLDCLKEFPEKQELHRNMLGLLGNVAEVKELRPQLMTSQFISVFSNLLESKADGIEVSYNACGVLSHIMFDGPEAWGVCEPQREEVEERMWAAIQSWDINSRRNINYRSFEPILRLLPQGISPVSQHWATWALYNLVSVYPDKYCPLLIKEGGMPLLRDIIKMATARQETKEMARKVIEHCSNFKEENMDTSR

Assay [2] deals with T1, ZER1 (residues 469–766).
Assay [3] deals with ZYG11B (residues 490–728) N523A (UniProt Q9C0D3 490-728, N523A).
Assay [4] concerns the target ZYG11B (residues 490–728) (UniProt Q9C0D3 490-728).
The target of assay [5] is T2, ZER1 (residues 469–766) N553A (human, UniProt Q7Z7L7 469-766, N553A).
The target in assay [6] is T2, ZER1 (residues 469–766) N553A. This is another data set of the same source.

Chain of ZYG11B (residues 490–728) N523A (Q9C0D3 other isoform, or with tags, fused parts or gaps N523A | N523A): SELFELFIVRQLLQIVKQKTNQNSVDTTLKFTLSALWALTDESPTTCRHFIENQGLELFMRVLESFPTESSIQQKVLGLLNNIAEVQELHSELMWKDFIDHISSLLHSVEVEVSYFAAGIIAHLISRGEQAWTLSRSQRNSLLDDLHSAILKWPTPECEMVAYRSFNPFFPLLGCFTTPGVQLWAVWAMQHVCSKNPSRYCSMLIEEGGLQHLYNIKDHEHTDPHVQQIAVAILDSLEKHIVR
Chain of ZYG11B (residues 490–728) (Q9C0D3 other isoform, or with tags, fused parts or gaps): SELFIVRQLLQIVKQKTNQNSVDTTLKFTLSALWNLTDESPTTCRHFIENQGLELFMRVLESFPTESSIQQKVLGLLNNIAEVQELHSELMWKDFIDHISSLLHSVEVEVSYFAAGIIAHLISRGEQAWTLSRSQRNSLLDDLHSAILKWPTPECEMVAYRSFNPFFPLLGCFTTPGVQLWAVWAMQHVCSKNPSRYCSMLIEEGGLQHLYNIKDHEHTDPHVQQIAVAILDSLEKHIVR
T2 sequence (Q7Z7L7 other isoform, or with tags, fused parts or gaps N553A | N553A): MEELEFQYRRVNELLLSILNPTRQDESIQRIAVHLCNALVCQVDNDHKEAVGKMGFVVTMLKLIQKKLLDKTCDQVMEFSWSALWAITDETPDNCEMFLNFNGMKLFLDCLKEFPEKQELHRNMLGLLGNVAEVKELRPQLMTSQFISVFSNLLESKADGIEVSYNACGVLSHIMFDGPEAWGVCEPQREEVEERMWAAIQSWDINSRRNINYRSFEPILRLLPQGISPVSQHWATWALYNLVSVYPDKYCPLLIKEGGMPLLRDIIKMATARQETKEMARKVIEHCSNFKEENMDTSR

B1: free H2A peptide (sequence: SGRGKQGGKA) (peptide)
peptide: SGRGKQGGKA
modifications: Printed N-terminus MEEL is read as start Met plus native residues from 469 (by analogy with SELF in ZYG11B); C-terminal His tag of pNIC-CH left out
One may read the Kd as the free concentration of one partner at which half of the binding sites on the other are occupied at equilibrium, for simple one-to-one binding. Read a high Kd as weaker binding. With B1, in the assay with ZER1 (residues 469–766) [1], the Kd came out at 3.8 µM.

B2: CFLHVGQD peptide (peptide)
peptide: CFLHVGQD
modifications: Printed N-terminus MEEL is read as start Met plus native residues from 469 (by analogy with SELF in ZYG11B); C-terminal His tag of pNIC-CH left out
B2 yielded a Kd with ZER1 (residues 469–766) [2] of 3.9 µM.

Molecule CFLHVGQD had a Kd in assay [3] of 2.9 µM.

B3: SFLHVGQD peptide (peptide)
peptide: SFLHVGQD
modifications: Printed N-terminus SELF is read as vector Ser plus native E490-L491-F492 (numbering from the 7XYW entity, 485-728 starting AQLGTELF); His-SUMO tag left out
For the molecule B3, the affinity in assay [4], expressed as Kd, was 6.8 µM. This lies in the single-digit micromolar range.

B4: GFLHVGQD peptide (peptide)
peptide: GFLHVGQD
modifications: Printed N-terminus SELF is read as vector Ser plus native E490-L491-F492 (numbering from the 7XYW entity, 485-728 starting AQLGTELF); His-SUMO tag left out
In turn, B4 came in with a Kd in assay [4] of 2.5 µM.

B5: SFLHVGQD peptide (peptide)
peptide: SFLHVGQD
modifications: Printed N-terminus MEEL is read as start Met plus native residues from 469 (by analogy with SELF in ZYG11B); C-terminal His tag of pNIC-CH left out
As to B5, in the assay with ZER1 (residues 469–766) [2], the Kd amounted to 1.3 µM.

B6: TFLHVGQD peptide (peptide)
peptide: TFLHVGQD
modifications: Printed N-terminus MEEL is read as start Met plus native residues from 469 (by analogy with SELF in ZYG11B); C-terminal His tag of pNIC-CH left out
Take B6: the Kd in the assay with ZER1 (residues 469–766) [2] was 3.1 µM.

B7: AFLHVGQD peptide (peptide)
peptide: AFLHVGQD
modifications: Printed N-terminus SELF is read as vector Ser plus native E490-L491-F492 (numbering from the 7XYW entity, 485-728 starting AQLGTELF); His-SUMO tag left out
B7 gave a Kd in assay [4] of 7.1 µM.

B8: AFLHVGQD peptide (peptide)
peptide: AFLHVGQD
modifications: Printed N-terminus MEEL is read as start Met plus native residues from 469 (by analogy with SELF in ZYG11B); C-terminal His tag of pNIC-CH left out
In the assay with ZER1 (residues 469–766) [2], B8 displayed a Kd of 1.6 µM.

B9: AFLHVGQD peptide (peptide)
peptide: AFLHVGQD
modifications: N-terminus MEEL read as start Met plus native residues from 469; His tag left out
Turning to B9, the affinity in assay [5], expressed as Kd, was 7.6 µM.

B10: CFLHVGQD peptide (peptide)
peptide: CFLHVGQD
modifications: Printed N-terminus SELF is read as vector Ser plus native E490-L491-F492 (numbering from the 7XYW entity, 485-728 starting AQLGTELF); His-SUMO tag left out
In turn, B10 came in with a Kd in assay [4] of 3 µM.

B11: GFLHVGQD peptide (peptide)
peptide: GFLHVGQD
modifications: Printed N-terminus MEEL is read as start Met plus native residues from 469 (by analogy with SELF in ZYG11B); C-terminal His tag of pNIC-CH left out
Turning to B11, binding in the assay with ZER1 (residues 469–766) [2] was put at a Kd of 4.2 µM.

B12: SFLHVGQD peptide (peptide)
peptide: SFLHVGQD
modifications: N-terminus MEEL read as start Met plus native residues from 469; His tag left out
B12 yielded a Kd in assay [6] of 7.1 µM.

In turn, SFLHVGQD yielded a Kd in assay [3] of 4.9 µM.

The molecule AFLHVGQD registered a Kd in assay [3] of more than 50 µM.

B13: TFLHVGQD peptide (peptide)
peptide: TFLHVGQD
modifications: N-terminus MEEL read as start Met plus native residues from 469; His tag left out
With B13, the Kd in assay [5] came out at 7.9 µM.
